{"source": "patent US10781452B2", "about": "“FLT3 receptor antagonists for the treatment or the prevention of pain disorders” (INSTITUT NATIONAL DE LA SANTE ET DE LA RECHERCHE MEDICALE …, priority 2010, dated 2020)", "molecular_target": "T1, full-length hFLT3 (Homo sapiens, UniProt P36888)", "T1 construct": "host or cells: HEK293T", "T1 sequence (P36888 27-993)": "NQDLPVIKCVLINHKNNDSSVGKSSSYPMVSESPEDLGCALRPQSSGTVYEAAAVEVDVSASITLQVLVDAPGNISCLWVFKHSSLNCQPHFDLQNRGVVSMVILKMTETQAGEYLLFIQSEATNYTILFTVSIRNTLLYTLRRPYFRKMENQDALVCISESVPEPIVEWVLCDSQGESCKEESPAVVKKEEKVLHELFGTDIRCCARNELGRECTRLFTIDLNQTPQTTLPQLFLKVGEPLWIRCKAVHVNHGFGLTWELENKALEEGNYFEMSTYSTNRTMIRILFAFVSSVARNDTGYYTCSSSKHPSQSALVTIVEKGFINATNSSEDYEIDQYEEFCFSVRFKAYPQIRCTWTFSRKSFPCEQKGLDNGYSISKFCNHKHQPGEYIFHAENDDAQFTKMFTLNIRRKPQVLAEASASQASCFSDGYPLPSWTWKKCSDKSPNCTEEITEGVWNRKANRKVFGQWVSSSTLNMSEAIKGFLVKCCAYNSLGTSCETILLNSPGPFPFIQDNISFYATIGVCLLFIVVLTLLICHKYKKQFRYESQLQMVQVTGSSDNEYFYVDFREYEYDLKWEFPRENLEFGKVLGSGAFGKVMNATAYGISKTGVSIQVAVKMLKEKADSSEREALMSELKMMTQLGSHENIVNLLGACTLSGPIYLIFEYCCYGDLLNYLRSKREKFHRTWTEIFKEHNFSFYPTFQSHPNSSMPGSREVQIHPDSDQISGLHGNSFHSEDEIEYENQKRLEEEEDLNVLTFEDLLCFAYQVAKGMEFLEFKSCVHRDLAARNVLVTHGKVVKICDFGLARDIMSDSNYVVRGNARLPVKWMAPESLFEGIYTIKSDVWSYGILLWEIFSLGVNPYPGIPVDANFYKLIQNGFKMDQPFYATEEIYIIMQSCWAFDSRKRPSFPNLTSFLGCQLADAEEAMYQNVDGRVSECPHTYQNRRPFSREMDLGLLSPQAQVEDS", "test": "TR-FRET displacement of Red-FL binding, HEK cells expressing full-length hFLT3", "settings": "HEK cells expressing full-length hFLT3, 0.5 nM Red-FL", "experimental": "The binding of the A3 antibody to full-length hFLT3 and mFLT3 was measured by displacement of extracellular FL binding on recombinant HEK cells by using time-resolved fluorescence resonance energy transfer (TR-FRET).\nChemicals and reagents. The Tag-lite® labeling medium was from Cisbio Bioassays (Condolet, France). The Lumi4-Tb derivative of O6-Benzylguanine was synthesized by Cisbio Bioassays and is commercialized as SNAP-Lumi4-Tb (Cisbio Bioassays, Ref. SSNPTBE).\nA recombinant rh-FLT3-L was produced as previously reported (Verstraete K, et al. Efficient production of bioactive recombinant human Flt3 ligand in E. coli. Protein J, 2009 28: 57-65) and labeled with a red fluorescent probe (Red-FL). Poly-L-ornithine (MW of 30,000-70,000 daltons) was from Sigma-Aldrich. The plasmids encoding for the SNAP tagged human FLT3 (pSNAP-hFLT3) or the mouse FLT3 (pSNAP-mFLT3) used for transient transfection was obtained from Cisbio Bioassays. Monoclonal antibodies against FLT3 (8F2) and phosphotyrosine FLT3 (PY969) were purchased from Cell Signaling Technology and labeled with Lumi4-Tb and d2 respectively, by Cisbio.\nCell culture. HEK293T cells, used for binding assays, were maintained in DMEM Glutamax (Invitrogen) supplemented with antibiotics (penicillin 50 U/ml, streptomycin 50 μg/ml) and 10% heat-inactivated Fetal Calf Serum.\nTransfection procedures. […]"}
{"molecule": "A3 antibody: human monoclonal antibody against FLT3; VH SEQ ID NO:1, VL SEQ ID NO:2 (antibody, V domains shown, Synthetic VH domain of A3; Synthetic VL region of A3) VH: EVQLVESGGSLVKPGGSLRLSCAASGFTFSNSYMNWVRQAPGKGLEWISDISGSSRDIDYADFVKGRFTISRDNATNSLYLQMNSLRAEDTAVYYCVRSGNSGMDVWGRGTLVTVSS VL: QSVLTQPASVSGSPGQSITISCAGTSSDVGGGYYVSWYQQHPGKAPKLMIYYDSYRPSGVSNRFSGSKSGNTASLTISGLQAEDEADYYCSSYTNNSTRVFGGGTKLEIK", "values": [{"measurement": "IC50, displacement of FL binding", "value": "about 17 μg/ml"}]}
